Values quoted from earlier work as cited in article doi:10.1101/2025.11.26.690829.

Molecular target: TDP-43 NTD (Homo sapiens) (UniProt Q13148)

Kd: 2000 nM
Substance: TDP-43 NTD (from UniProt Q13148)
